This is an account of results in paper PMC4363599, “A Purification Method for a Molecular Complex in Which a Scaffold Molecule Is Fully Loaded with Heterogeneous Molecules”.

The target in one series is L7Ae (UniProt O29494 1-119). The series is described as follows: SPR; no signal up to 2 uM RNA; SPR as in ref 9 (L7Ae chip, RNA analyte); resin and plate assays in assay buffer at room temperature; buffer composition, salt and pH not given in the material. The note with it: protein: recombinant; tags: His tag (pET28b-His-L7Ae-cmyc-His named as the L7Ae expression plasmid); immobilized on SPR chip.
Sequence of L7Ae (O29494 whole entry): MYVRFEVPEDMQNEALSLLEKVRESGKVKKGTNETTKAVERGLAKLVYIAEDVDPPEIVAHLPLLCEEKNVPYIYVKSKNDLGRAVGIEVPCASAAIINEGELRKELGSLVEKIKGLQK

Series [1] addresses Alexa Fluor 633-labelled L7Ae (UniProt O29494 1-119). Put plainly: pull-down; fBCD35g resin removes most free L7Ae; SPR as in ref 9 (L7Ae chip, RNA analyte); resin and plate assays in assay buffer at room temperature; buffer composition, salt and pH not given in the material. The note with it: protein: recombinant; tags: His tag; Alexa Fluor 633 by amine coupling; label: resin-immobilized.

Sequence of Alexa Fluor 633-labelled L7Ae (O29494 whole entry): as above

Take GGUUCAGCUGACUCGAAAGGGCGUGAUGCUGAAUC (XNA, 2'-fluoro on all pyrimidines) [BCD35 2'-fPy-RNA]: the binding result with L7Ae was “no binding”. With GGUUCAGCUGAGGCGAAAGCCGGUGAUGCUGAAUC (XNA, 2'-fluoro on all pyrimidines) [fBCD35g immobilized on resin], the binding result in series [1] is reported as “binds”.
